Test results as given in the supplement of paper PMC7877785.
± gives the uncertainty stated by the source.

Assay: self-splicing fitness, log relative to wild type (ln ratio); higher = more splicing; Tetrahymena group I intron in knt gene, E. coli kanamycin selection, DiMSum; sequences stand for … in CUCUCU…GGAGGGAAAAGUUAUCAGGCAUGCACCUGGUAGCUAGUCUUUAAACCAAUAGAUUGCAUCGGUUUAAAAGGCAAGACCGUCAAAUUGCGGGAAAGGGGUCAACAGCCGUUCAGUACCAAGUCUCAGGGGAAACUUUGAGAUGGCCUUGCAAAGGGUAUGGUAAUAAGCUGACGGACAUGGUCCUAACCACGCAGCCAAGUCCUAAGUCAACAGAUCUUCUGUUGAUAUGGAUGCAGUUCACAGACUAAAUGUCGGUCGGGGAAGAUGUAUUCUUCUCAUAAGAUAUAGUCGGACCUCUCCUUAAUGGGAGCUAGCGGAUGAAGUGAUGCAACACUGGAGCCGCUGGGAACUAAUUUGUAUGCGAAAGUAUAUUGAUUAGUUUUGGAGUACUCGUGGUCG
In short: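 DiMSum derived fitness as the error-weighted combination of fold changes across replicates, kanamycin versus no kanamycin, normalised to wild type. E. coli BL21(DE3) held the library, which randomised all eight P1ex-region intron nucleotides within the knt kanamycin-resistance gene on pET-22b(+). Six replicate transformations grew overnight at 37°C or 30°C on LB agar with or without 25 μg/mL kanamycin, also containing 100 μg/mL carbenicillin, 50 μM IPTG and 0.2% rhamnose, and pooled colonies were amplicon-sequenced on an Illumina HiSeq 2500.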

Sequence	self-splicing fitness (ln) (30 °C)	self-splicing fitness (ln) (37 °C)
AAUAAGCAAUAUUACGACGU	0.233 ± 0.057	0.618 ± 0.072
AAUAAGCAAUAUUACGAUAC	-2.25 ± 0.25	-1.44 ± 0.44
AAUAAGCAAUAUUACGAUUG	-2.35 ± 0.18	-1.91 ± 0.23
AAUAAGCAAUAUUACGCAAA	-1.62 ± 0.23	-2.05 ± 0.25
AAUAAGCAAUAUUACGCUAA	-2.46 ± 0.16	-0.891 ± 0.13
AAUAAGCAAUAUUACGCUAG	-1.79 ± 0.18	-1.17 ± 0.17
AAUAAGCAAUAUUACGCUGC	-3.69 ± 0.3	-2.67 ± 0.38
AAUAAGCAAUAUUACGCUUA	-3.19 ± 0.26	-1.74 ± 0.22
AAUAAGCAAUAUUACGGCAU	0.0296 ± 0.085	-0.0272 ± 0.097
AAUAAGCAAUAUUACGGGUA	-2.49 ± 0.21	-1.32 ± 0.14
AAUAAGCAAUAUUACGGGUC	-3.18 ± 0.2	-2.53 ± 0.22
AAUAAGCAAUAUUACGGUUC	-2.72 ± 0.14	-1.77 ± 0.15
AAUAAGCAAUAUUACGUAAU	-1.38 ± 0.1	-0.587 ± 0.13
AAUAAGCAAUAUUACGUAUA	-1.76 ± 0.12	-1.56 ± 0.13
AAUAAGCAAUAUUACGUCGA	-1.38 ± 0.099	-0.488 ± 0.12
AAUAAGCAAUAUUACGUCUG	-1.59 ± 0.11	-0.973 ± 0.11
AAUAAGCAAUAUUACGUGAA	-2.46 ± 0.16	-0.674 ± 0.13
AAUAAGCAAUAUUACGUUCC	-1.96 ± 0.14	-1.48 ± 0.18
AAUAAGCAAUAUUACGUUGC	-3.52 ± 0.19	-2.53 ± 0.2
AAUAAGCAAUAUUACGUUUA	-2.05 ± 0.084	-1.3 ± 0.096
AAUCAGCAAUAUUACGAAAU	-0.801 ± 0.066	0.368 ± 0.092
AAUCAGCAAUAUUACGACAA	-0.758 ± 0.12	0.189 ± 0.14
AAUCAGCAAUAUUACGAGUG	-0.769 ± 0.053	-0.281 ± 0.08
AAUCAGCAAUAUUACGAUCG	-0.0405 ± 0.063	0.448 ± 0.084
AAUCAGCAAUAUUACGCCUU	0.109 ± 0.082	0.0213 ± 0.1
AAUCAGCAAUAUUACGCGCC	-0.953 ± 0.12	-0.532 ± 0.13

Sequence	self-splicing fitness (ln) (30 °C)	self-splicing fitness (ln) (37 °C)
AAUCAGCAAUAUUACGCUCC	-1.54 ± 0.14	-0.129 ± 0.11
AAUCAGCAAUAUUACGCUUU	-0.193 ± 0.067	0.378 ± 0.1
AAUCAGCAAUAUUACGGCGG	-1.05 ± 0.1	0.206 ± 0.14
AAUCAGCAAUAUUACGGGUA	-0.368 ± 0.071	0.17 ± 0.081
AAUCAGCAAUAUUACGGGUU	-2.48 ± 0.12	-2.02 ± 0.13
AAUCAGCAAUAUUACGGUGC	-0.892 ± 0.072	-0.189 ± 0.082
AAUCAGCAAUAUUACGGUGG	-1.14 ± 0.056	-0.718 ± 0.076
AAUCAGCAAUAUUACGUAUA	-0.574 ± 0.066	0.0946 ± 0.087
AAUCAGCAAUAUUACGUAUU	-1.17 ± 0.053	-0.697 ± 0.061
AAUCAGCAAUAUUACGUGCU	-3.39 ± 0.17	-2.56 ± 0.17
AAUCAGCAAUAUUACGUUUG	-2.11 ± 0.092	-1.94 ± 0.13
AAUGAGCAAUAUUACGAAUU	-2.71 ± 0.28	-2.3 ± 0.39
AAUGAGCAAUAUUACGACCU	-0.757 ± 0.24	-0.257 ± 0.41
AAUGAGCAAUAUUACGACUU	-0.422 ± 0.091	0.263 ± 0.1
AAUGAGCAAUAUUACGAGCG	-3.49 ± 0.38	-1.56 ± 0.3
AAUGAGCAAUAUUACGAGGA	-2.86 ± 0.36	-2.08 ± 0.36
AAUGAGCAAUAUUACGAUAC	-4 ± 0.33	
AAUGAGCAAUAUUACGAUUG	-1.99 ± 0.38	-1.14 ± 0.26
AAUGAGCAAUAUUACGCAAU	-2.49 ± 0.23	-2.25 ± 0.25
AAUGAGCAAUAUUACGCAUA	-2.52 ± 0.19	-2.42 ± 0.24
AAUGAGCAAUAUUACGCUGG	-3.22 ± 0.2	-2.08 ± 0.25
AAUGAGCAAUAUUACGGCGG	-4.11 ± 0.34	-2.69 ± 0.29
AAUGAGCAAUAUUACGGCGU	-1.43 ± 0.07	-0.25 ± 0.097
AAUGAGCAAUAUUACGGGAG	-2.87 ± 0.23	-3.53 ± 0.42
AAUGAGCAAUAUUACGGGUU	-2.36 ± 0.14	-2.13 ± 0.2
AAUGAGCAAUAUUACGUACC		-2.85 ± 0.27

Sequence	self-splicing fitness (ln) (30 °C)	self-splicing fitness (ln) (37 °C)
AAUGAGCAAUAUUACGUCAG	-1.81 ± 0.45	-2.32 ± 0.42
AAUGAGCAAUAUUACGUCAU	-2.26 ± 0.2	-1.02 ± 0.18
AAUGAGCAAUAUUACGUCGU	-2.77 ± 0.082	-1.18 ± 0.086
AAUGAGCAAUAUUACGUGCG	-2 ± 0.15	-1.99 ± 0.3
AAUGAGCAAUAUUACGUUGC	-4.6 ± 0.45	-2.78 ± 0.29
AAUUAGCAAUAUUACGAAUU	-2.7 ± 0.15	-1.1 ± 0.13
AAUUAGCAAUAUUACGAGUC		-1.9 ± 0.36
AAUUAGCAAUAUUACGAUUG	-2.58 ± 0.2	-1.14 ± 0.22
AAUUAGCAAUAUUACGCAAC	-3 ± 0.4	-1.93 ± 0.24
AAUUAGCAAUAUUACGCAUA	-1.59 ± 0.15	-2.07 ± 0.15
AAUUAGCAAUAUUACGCCAU	-2.49 ± 0.19	-1.04 ± 0.16
AAUUAGCAAUAUUACGCGAC	-2.66 ± 0.21	-1.61 ± 0.24
AAUUAGCAAUAUUACGCGUC	-2.69 ± 0.16	-1.1 ± 0.14
AAUUAGCAAUAUUACGGCCG	-0.532 ± 0.18	0.571 ± 0.28
AAUUAGCAAUAUUACGGCGU	-0.085 ± 0.076	0.168 ± 0.1
AAUUAGCAAUAUUACGGGAU	-2.28 ± 0.22	-1.37 ± 0.2
AAUUAGCAAUAUUACGGGCA	-0.73 ± 0.14	0.186 ± 0.11
AAUUAGCAAUAUUACGUCAA	-2.11 ± 0.17	-0.791 ± 0.22
AAUUAGCAAUAUUACGUCUG	-1.72 ± 0.15	-0.251 ± 0.17
AAUUAGCAAUAUUACGUUAA	-1.19 ± 0.12	-0.801 ± 0.17
AAUUAGCAAUAUUACGUUCU	-0.609 ± 0.077	-0.522 ± 0.099
AAUUAGCAAUAUUACGUUUA	-1.6 ± 0.12	-0.975 ± 0.12
ACAAAGCAAUAUUACGAAAA	-2.93 ± 0.25	-2.42 ± 0.27
ACAAAGCAAUAUUACGAAAG	-1.59 ± 0.12	-1.32 ± 0.14
ACAAAGCAAUAUUACGAAGA	-3.03 ± 0.42	-0.86 ± 0.18
